Assay results as given in patent US6362319B1, “Glial cell line-derived neurotrophic factor” (Amgen Inc., priority 1991, dated 2002).

How the values were obtained:
[1] = test system: parasympathetic nerve cells from chick embryo ciliary ganglia; assay: Neuronal survival assay (MTT), ciliary ganglia; format: cell-based
Method: Cultures of primary check embryo ciliary ganglia and sympathetic chain ganglia were prepared as previously described (Collins 1978 Develop. Biol. 65:50; Manthorpe et al. 1986 Develop. Brain Res. 25:191). Briefly, ciliary or sympathetic ganglia were removed from fertile, pathogen free chicken eggs that had been incubated for 8 and 10 days, respectively, at 38° C. in a humidified atmosphere. […]
Ten μl of a serial dilution of the sample to be assayed for neurotrophic activity was added to each well and the dishes were incubated for 20 hours at 37° C. in a humidified atmosphere containing 7.5% CO2. […] The absorbance of 570 nm was determined relative to a 690 nm reference for each well using an automatic microtiter plate reader (Dynatech, Chantilly, Va.). The absorbance of wells which had not received any neurotrophic agent (negative controls) was substracted from the absorbance of sample-containing wells. The resulting absorbance is proportional to the number of living cells in each well, defined as those nerve cells capable of reducing the dye. […] Specific activity was determined by dividing the number of trophic units by the amount of protein present in the sample.

[2] = test system: sympathetic neurons from chick embryo sympathetic chain ganglia; assay: Neuronal survival assay (MTT), sympathetic chain ganglia; format: cell-based
Method: Cultures of primary check embryo ciliary ganglia and sympathetic chain ganglia were prepared as previously described (Collins 1978 Develop. Biol. 65:50; Manthorpe et al. 1986 Develop. Brain Res. 25:191). Briefly, ciliary or sympathetic ganglia were removed from fertile, pathogen free chicken eggs that had been incubated for 8 and 10 days, respectively, at 38° C. in a humidified atmosphere. The ganglia were chemically dissociated by exposure first to Hands' Balanced Salt Solution without divalent cations, containing 10 mM HEPES buffer pH 7.2 for 10 min at 37° C., and then by exposure to a solution of 0.125% bactotrypsin 1:250 (Difco, Detroit, Mich.) in Hanks' Balanced Salt Solution modified as above for 12 min at 37° C. Trypsinization was stopped by addition of fetal calf serum to a final concentration of 10%.
After this treatment, ganglia were transferred to a solution consisting of Dulbecco's high glucose Modified Eagle Medium without bicarbonate containing 10% fetal calf serum and 10 mM HEPES, pH 7.2 and were mechanially dissociated by trituration approximately 10 times through a glass Pasteur pipet whose opening had been fire polished and constricted to a diameter such that it took 2 seconds to fill the pipet.
The dissociated ganglia were then plated in culture medium (Dulbecco's Modified Eagle Medium supplemented with 10% fetal calf serum, 4 mM glutamine, 60 mg/L penicillin-G, 25 mM HEPES, pH 7.2) in 100 mm diameter tissue culture dishes (40 dissociated ganglia per dish) for three hours. […] After three hours, the nonadherent nerve cells were collection by centrifugation, resuspended in culture medium, and plated in 50 μl per well onto half area 96 well microtiter tissue culture plates at a density of 1500 nerve cells per well. The microtiter wells had been previously exposed to a 1 mg/ml solution of poly-L-ornithine in 10 mM sodium borate, pH 8.4 overnight at 4° C., washed in distilled water and air dried.
Ten μl of a serial dilution of the sample to be assayed for neurotrophic activity was added to each well and the dishes were incubated for 20 hours at 37° C. in a humidified atmosphere containing 7.5% CO2. After 18 hours for ciliary and 40 hours for sympathetic ganglia, 15 μl per well of a 1.5 mg/ml solution of the tetrasolium dye MTT in Dulbecco's high glucose Modified Eagle Medium without bicarbonate containing 10 mM HEPES, pH 7.2, was added and the cultures placed in the 37° C. incubator for 4 hours. Then, 75 μl of a solution of 6.7 ml of 12 M HCl per liter of isopropanol was added and the contents of each well triturated 30 times to break open the cells and suspend the dye. The absorbance of 570 nm was determined relative to a 690 nm reference for each well using an automatic microtiter plate reader (Dynatech, Chantilly, Va.). The absorbance of wells which had not received any neurotrophic agent (negative controls) was substracted from the absorbance of sample-containing wells. The resulting absorbance is proportional to the number of living cells in each well, defined as those nerve cells capable of reducing the dye. The number of trophic units of neurotrophic activity was defined as the reciprocal of the dilution that gave 50% of maximal survival of nerve cells. Specific activity was determined by dividing the number of trophic units by the amount of protein present in the sample.

[3] = test system: GABA neurons in mesencephalic cultures; assay: 14C-GABA uptake in mesencephalic cultures; format: cell-based, rat; details: cultures grown with GDNF for 16 days
Method: FIGS. 21A-C depicts the specificity of GDNF to dopaminergic neurons. Cultures were established as described in Example 1B. GDNF was added on the day of plating. A. ^3H-DA uptake was measured after seven days in vitro. B. ^14C-GABA uptake was measured after eight days in vitro. Cells were incubated and treated as for ^3H-DA uptake, except the uptake buffer consists of Kreb-Ringer's phosphate buffer, pH 7.4, containing 5.6 mM glucose, 1.3 mM EDTA, 10 μM amino-oxyacetic acid (to prevent GABA breakdown), 2 mM β-alanine (to inhibit glia uptake of GABA) and 0.1 μM ^14C-GABA (150 mCi/mmole, New England Nuclear, Boston, Mass.). In the presence of 1 mM diaminobutyric acid (DABA), a potent inhibitor of ^14C-GABA uptake into GABA neurons, the ^14C-uptake was reduced to 10%. Control values in the presence of DABA were subtracted from experimental values.
H^3-dopamine (^3H-DA) and ^14C-GABA uptake were measured in sister cultures of mesencephalic cells which had been grown with various concentrations of GDNF for 15 and 16 days, respectively. As described above, GDNF enhanced the ^3H-DA uptake capacity of mesencephalic dopamine neurons ˜150% over control without GDNF (FIG. 21A). […] This is also illustrated by the increase in the ^3H-DA/^14C-GABA uptake ratio calculated (FIG. 21C).

[4] = test system: serotonergic neurons in rat embryo mesencephalic cultures; assay: 3H-serotonin uptake in mesencephalic cultures; format: cell-based; details: uptake after 6 days in vitro
Method: FIGS. 24A-B depicts the specificity of GDNF to dopaminergic neurons. Cultures were prepared as described in Example 1B. GDNF was added on the day of plating, and uptake was measured after 6 days in vitro. A depicts dopamine uptake and B depicts serotonin uptake.
In the presence of 10 μM citalpram (obtained from Dr. C. Mytilineou, Mount Sinai School of Medicine), a known potent inhibitor of serotonin uptake in serotonin neurons, the ^3H-serotonin uptake was reduced to 15%.

[5] = test system: nigral dopaminergic nerve cells; assay: Experimental Parkinsonism in monkeys treated with MPTP; format: in vivo, monkeys (Cebus apella); details: intraventricular minipump, 14 days, MPTP 0.6 mg/kg
Method: A stainless-steel cannula may be implanted into the right lateral ventricle and connected to a subcutaneously-implanted osmotic minipump (Alzet 2002). The minipump contains GDNF at various concentrations or its diluent as a negative control. The pump delivers 0.5 μl/h for 14 days. Two days after the cannula-pump implant, monkeys (Cebus apella) receive an injection of 0.6 mg/kg of MPTP into the right carotid artery. Six weeks after the initial implant, animals are perfused with saline and the brain rapidly removed. The brain is dissected on ice and punches of tissue are removed from the caudate nucleus and putamen. The substantia nigra is placed in fixative. The caudate-putamen tissue is analyzed by HPLC-EC for dopamine, the substantia nigra is processed for tyrosine hydroxylase (TH) immunoreactivity.
Degeneration of nigral dopaminergic nerve cells and their axonal projections to the caudate/putamen cause experimental Parkinsonism in this monkey model. There are several experimental indications that GDNF may prevent or reduce the severity of this neuronal degeneration. […] This indicates sparing by GDNF of nigral dopaminergic nerve cells from the toxic effects of MPTP. […] This indicates sparing by GDNF of the axonal projections of the nigral dopaminergic neurons from the toxic effects of MPTP. […]

B1: glial cell line-derived neurotrophic factor (protein)
chain: SNMPEDYPDQFDDVMDFIQATIKRLKRSPDKQMAVLPRRERNRQAAAANPENSRGKGRRGQRGKNRGCVLTAIHLNVTDLGLGYETKEELIFRYCSGSCDAAETTYDKILKNLSRNRRLVTDKVGQACCRPIAF
notes: dopaminergic neurotrophic protein purified from serum-free conditioned medium of rat B49 glioblastoma cells; disulfide-bonded dimer
- survival of parasympathetic nerve cells [1]: promotes the survival in culture of parasympathetic nerve cells
- bioactivity in sympathetic neuron survival bioassay [2]: promotes the survival in culture of symphathetic nerve cells
- ED50 for sympathetic neuron survival ([2]; chick embryo (E10) sympathetic ganglia): about 5 ng/ml
- 14C-GABA uptake higher than control [3]: ~20%
- effect on serotonin uptake [4]: fails to increase the uptake of serontonin
- loss of dopamine content in the caudate/putamen [5]: may also prevent the loss of dopamine content in the caudate/putamen
